Measurements taken from the supplement of paper PMC9112550, “Optimization of the antimicrobial peptide Bac7 by deep mutational scanning” (BMC Biology, 2022).

System: Escherichia coli TOP10
Assay: shrunken log2 fold change of peptide-encoding DNA abundance (4.5 h post-induction vs induction); higher = less antimicrobial activity (less host growth inhibition)
Conditions: time post-induction: 4.5 h; library: site-saturation at positions 5, 18, 19, 20
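Note: peptides expressed intracellularly from a pBAD plasmid library in pooled LB shake-flask culture, induced with 0.3% L-arabinose, DNA abundance read by NGS, three biological replicates, DESeq2 with apeglm shrinkage.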

Sequence | shrunken log2 fold change
RRIRSRPPRLPRPRPRPAVLPRP | -0.355
RRIRMRPPRLPRPRPRPPNQPRP | 0.42
RRIRHRPPRLPRPRPRPFPQPRP | 3.88
RRIRVRPPRLPRPRPRPNWGPRP | 0.119
RRIRNRPPRLPRPRPRPAIMPRP | -0.0978
RRIRFRPPRLPRPRPRPFKTPRP | -0.164
RRIRIRPPRLPRPRPRPKTEPRP | -0.413
RRIRIRPPRLPRPRPRPWPKPRP | -0.122
RRIRNRPPRLPRPRPRPIHWPRP | 0.0944
RRIRQRPPRLPRPRPRPLFPPRP | 0.0501
RRIRCRPPRLPRPRPRPEIAPRP | 0.193
RRIRHRPPRLPRPRPRPSKPPRP | 0.00696
RRIRHRPPRLPRPRPRPNYIPRP | -1.35
RRIRARPPRLPRPRPRPAIAPRP | 0.547
RRIRHRPPRLPRPRPRPVEEPRP | 0.00298
RRIRGRPPRLPRPRPRPVYAPRP | 0.0566
RRIRFRPPRLPRPRPRPTKRPRP | 0.269
RRIRGRPPRLPRPRPRPTHMPRP | 0.745
RRIRPRPPRLPRPRPRPQCPPRP | -0.172
RRIRARPPRLPRPRPRPFCMPRP | 0.0299
RRIRQRPPRLPRPRPRPNPTPRP | 0.00513
RRIRARPPRLPRPRPRPNKCPRP | -0.311
RRIRLRPPRLPRPRPRPQIHPRP | -0.154
RRIRRRPPRLPRPRPRPVQEPRP | -0.00475
RRIRSRPPRLPRPRPRPVWSPRP | 0.0126

Sequence | shrunken log2 fold change
RRIRARPPRLPRPRPRPEQAPRP | 0.759
RRIRLRPPRLPRPRPRPHAVPRP | 0.0578
RRIRRRPPRLPRPRPRPTRNPRP | 0.853
RRIRKRPPRLPRPRPRPLRIPRP | 0.648
RRIRWRPPRLPRPRPRPLILPRP | -0.604
RRIRLRPPRLPRPRPRPSDSPRP | -0.498
RRIRCRPPRLPRPRPRPVSDPRP | 0.0185
RRIRPRPPRLPRPRPRPHYEPRP | -0.206
RRIRRRPPRLPRPRPRPSPEPRP | 0.513
RRIRFRPPRLPRPRPRPKWVPRP | -0.193
RRIRYRPPRLPRPRPRPTRHPRP | -0.00457
RRIRERPPRLPRPRPRPVGDPRP | -0.0343
RRIRYRPPRLPRPRPRPREGPRP | 0.251
RRIRRRPPRLPRPRPRPFLVPRP | -0.566
RRIRQRPPRLPRPRPRPLYHPRP | -0.283
RRIRIRPPRLPRPRPRPQSFPRP | 0.0784
RRIRVRPPRLPRPRPRPWVAPRP | -0.00183
RRIRKRPPRLPRPRPRPQCCPRP | -0.101
RRIRRRPPRLPRPRPRPGFYPRP | -0.107
RRIRERPPRLPRPRPRPLANPRP | -0.225
RRIRIRPPRLPRPRPRPADGPRP | 0.276
RRIRWRPPRLPRPRPRPFGIPRP | -0.115
RRIRNRPPRLPRPRPRPQIFPRP | -0.27
RRIRFRPPRLPRPRPRPFQQPRP | -0.268
RRIRCRPPRLPRPRPRPLWVPRP | -0.1

Sequence | shrunken log2 fold change
RRIRERPPRLPRPRPRPDNNPRP | -0.237
RRIRTRPPRLPRPRPRPPNHPRP | -0.000973
RRIRFRPPRLPRPRPRPACAPRP | 0.291
RRIRARPPRLPRPRPRPIVAPRP | 0.371
RRIRKRPPRLPRPRPRPLKLPRP | 0.0766
RRIRVRPPRLPRPRPRPRHWPRP | 0.293
RRIRPRPPRLPRPRPRPLGYPRP | -0.0805
RRIRARPPRLPRPRPRPLMWPRP | 0.481
RRIRNRPPRLPRPRPRPFCKPRP | -0.835
RRIRSRPPRLPRPRPRPDFFPRP | -0.0547
RRIRPRPPRLPRPRPRPYTVPRP | -0.947
RRIRNRPPRLPRPRPRPDIPPRP | -0.588
RRIRRRPPRLPRPRPRPTMYPRP | 0.0102
RRIRGRPPRLPRPRPRPYAPPRP | 0.116
RRIRCRPPRLPRPRPRPGVSPRP | 0.0886
RRIRDRPPRLPRPRPRPHWVPRP | 0.0635
RRIRKRPPRLPRPRPRPQGHPRP | 0.0492
RRIRQRPPRLPRPRPRPEGQPRP | -0.0666
RRIRYRPPRLPRPRPRPEWIPRP | 0.0106
RRIRPRPPRLPRPRPRPEWMPRP | 0.0362
RRIRYRPPRLPRPRPRPRPHPRP | -0.0677
RRIRVRPPRLPRPRPRPLGGPRP | 0.27
RRIRHRPPRLPRPRPRPYRAPRP | -0.258
RRIRVRPPRLPRPRPRPAPSPRP | 0.342
RRIRCRPPRLPRPRPRPGYDPRP | -0.167

Sequence | shrunken log2 fold change
RRIRYRPPRLPRPRPRPQRSPRP | -0.129
RRIRDRPPRLPRPRPRPQVTPRP | 0.0425
RRIRARPPRLPRPRPRPRGIPRP | 0.488
RRIRKRPPRLPRPRPRPVYKPRP | 0.0665
RRIRWRPPRLPRPRPRPVNAPRP | 0.0945
RRIRARPPRLPRPRPRPHASPRP | -0.0111
RRIRVRPPRLPRPRPRPAFIPRP | 0.00175
RRIRYRPPRLPRPRPRPDFGPRP | -0.251
RRIRKRPPRLPRPRPRPMCWPRP | 0.0564
RRIRIRPPRLPRPRPRPHYAPRP | -0.121
RRIRARPPRLPRPRPRPPMSPRP | 0.414
RRIRWRPPRLPRPRPRPFVEPRP | -0.436
RRIRYRPPRLPRPRPRPDNPPRP | -0.877
RRIRPRPPRLPRPRPRPPNYPRP | -0.0609
RRIRARPPRLPRPRPRPRMCPRP | 0.339
RRIRVRPPRLPRPRPRPHVKPRP | -0.0504
RRIRTRPPRLPRPRPRPGMEPRP | 0.013
RRIRLRPPRLPRPRPRPWMEPRP | 0.00489
RRIRGRPPRLPRPRPRPYYPPRP | -0.791
RRIRDRPPRLPRPRPRPNWHPRP | 0.144
RRIRGRPPRLPRPRPRPVPGPRP | 0.742
RRIRMRPPRLPRPRPRPINHPRP | -0.173
RRIRRRPPRLPRPRPRPPQCPRP | 1.55
RRIRIRPPRLPRPRPRPKFWPRP | -0.0477
RRIRTRPPRLPRPRPRPFCLPRP | -0.278

Sequence | shrunken log2 fold change
RRIRFRPPRLPRPRPRPGSDPRP | -0.111
RRIRKRPPRLPRPRPRPYWHPRP | -0.684
RRIRVRPPRLPRPRPRPANDPRP | 0.0219
RRIRDRPPRLPRPRPRPWFFPRP | 0.673
RRIRYRPPRLPRPRPRPRRCPRP | 0.254
RRIRCRPPRLPRPRPRPWNMPRP | -0.316
RRIRFRPPRLPRPRPRPHDCPRP | -0.0297
RRIRVRPPRLPRPRPRPGDWPRP | 0.432
RRIRTRPPRLPRPRPRPYWAPRP | -0.0649
RRIRCRPPRLPRPRPRPIHWPRP | -0.363
RRIRQRPPRLPRPRPRPEMQPRP | 0.0355
RRIRERPPRLPRPRPRPEMTPRP | -0.0236
RRIRFRPPRLPRPRPRPLTQPRP | -0.155
RRIRNRPPRLPRPRPRPYFSPRP | -0.225
RRIRLRPPRLPRPRPRPKLAPRP | 0.098
RRIRVRPPRLPRPRPRPCCDPRP | -0.182
RRIRRRPPRLPRPRPRPDEYPRP | -0.0588
RRIRVRPPRLPRPRPRPGHRPRP | -0.0978
RRIRIRPPRLPRPRPRPFTGPRP | -1.27
RRIRYRPPRLPRPRPRPTYCPRP | -0.165
RRIRMRPPRLPRPRPRPNATPRP | 2.16
RRIRLRPPRLPRPRPRPEIMPRP | -0.00809
RRIRMRPPRLPRPRPRPPYVPRP | -0.0137
RRIRWRPPRLPRPRPRPDYDPRP | -0.246
RRIRIRPPRLPRPRPRPFMNPRP | -0.16

Sequence | shrunken log2 fold change
RRIRHRPPRLPRPRPRPGVKPRP | -0.0148
RRIRPRPPRLPRPRPRPYNKPRP | -1.16
RRIRSRPPRLPRPRPRPGPIPRP | 0.298
RRIRGRPPRLPRPRPRPQQDPRP | 0.357
RRIRFRPPRLPRPRPRPQERPRP | 0.0046
RRIRQRPPRLPRPRPRPSCKPRP | -0.259
RRIRHRPPRLPRPRPRPAGKPRP | 0.0288
RRIRDRPPRLPRPRPRPVWAPRP | 0.548
RRIRHRPPRLPRPRPRPECKPRP | -0.0985
RRIRQRPPRLPRPRPRPCSQPRP | -0.018
RRIRLRPPRLPRPRPRPTFPPRP | 0.131
RRIRYRPPRLPRPRPRPPNAPRP | 0.153
RRIRNRPPRLPRPRPRPDCAPRP | 0.315
RRIRIRPPRLPRPRPRPQGSPRP | -0.0316
RRIRKRPPRLPRPRPRPMQCPRP | -0.0161
RRIRCRPPRLPRPRPRPEMRPRP | 0.835
RRIRDRPPRLPRPRPRPFWHPRP | -0.166
RRIRSRPPRLPRPRPRPNQRPRP | 0.0415
RRIRERPPRLPRPRPRPFERPRP | 0.00782
RRIRRRPPRLPRPRPRPYSEPRP | -0.154
RRIRPRPPRLPRPRPRPELHPRP | 0.0832
RRIRMRPPRLPRPRPRPFSRPRP | 0.0409
RRIRQRPPRLPRPRPRPLNFPRP | -0.233
RRIRARPPRLPRPRPRPLKIPRP | -0.165
RRIRLRPPRLPRPRPRPNCRPRP | 0.00739
